According to US20050260166 (Phytovation B.V., published 2005):

Biological target: NS1 (Influenza A virus (A/PR/8/34), UniProt P03496 P03496:1-230)
Assay: EMSA; 2 pM siRNA with 0-200 pM protein as printed; on ice 20 min; native 5% PAGE
Details: tags: N-terminal His tag (pQE31, Qiagen); label: 5'-33P; 19-bp duplex with 3' dTdT overhangs

Chain of NS1 (P03496 whole entry, one chain of several): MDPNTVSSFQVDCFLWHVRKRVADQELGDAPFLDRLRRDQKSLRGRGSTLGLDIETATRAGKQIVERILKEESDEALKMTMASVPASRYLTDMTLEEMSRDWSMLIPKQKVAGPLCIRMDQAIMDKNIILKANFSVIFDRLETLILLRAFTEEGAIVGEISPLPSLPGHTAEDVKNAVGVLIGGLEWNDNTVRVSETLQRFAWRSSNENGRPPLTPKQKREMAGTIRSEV

B1: GL3 luciferase siRNA (dsRNA)
RNA 1: CUUACGCUGAGUACUUCGATT
RNA 2: UCGAAGUACUCAGCGUAAGTT
modifications: 3'-terminal TT of each strand are deoxynucleotides
Question: Does B1 bind?
Answer: binds
